Test results reported in PMC10845952.

Key:
[1] = biological target: MecA fused to the RenG N-terminal domain (1-155) (S. mutans) (UniProt Q8DW33); test: split reporter (BiFC, NanoBiT)
[2] = biological target: RNase J1 fused to the RenG N-terminal domain (NTD1, 1-155) (S. mutans); test: split reporter (BiFC, NanoBiT); RenG split luciferase complementation assay (SLCA) in live S. mutans at mid-log phase, coelenterazine-h, normalised to OD600; signal relative to unfused fragments; relative binding affinity = SLCA value divided by the value of the whole-RenG chimera of the less abundant partner

Chain of MecA fused to the RenG N-terminal domain (1-155) (S. mutans) (Q8DW33 whole entry, the tested form may be a part): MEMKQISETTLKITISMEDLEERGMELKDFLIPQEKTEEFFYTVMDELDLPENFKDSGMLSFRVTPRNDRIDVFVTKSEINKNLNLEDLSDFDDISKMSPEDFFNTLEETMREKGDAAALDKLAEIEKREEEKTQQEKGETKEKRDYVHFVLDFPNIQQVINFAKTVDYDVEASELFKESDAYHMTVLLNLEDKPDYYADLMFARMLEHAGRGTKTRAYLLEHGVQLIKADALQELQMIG

relative binding affinity (%) [2] [%] | Substance | relative binding affinity (%) [1] [%]
– | ComX fused to the RenG C-terminal domain (156-314) (natural protein) | 6.3
– | SpaP fused to the RenG C-terminal domain (156-314) (from UniProt P23504 998-1532) (natural protein) | 1.72
– | PcrA fused to the RenG C-terminal domain (156-314) (from UniProt Q8DTY6 1-733) (natural protein) | 6.36
– | GyrA fused to the RenG C-terminal domain (156-314) (natural protein) | 12.9
97.8 | RNase J2 fused to the RenG C-terminal domain (CTD1, 156-314) (natural protein) | –
